Assay results from patent US8796227B2, “Peptides for inhibiting chemokine binding to chemokine receptors” (Biokine Therapeutics Ltd., priority 2002, dated 2014).

What was measured:
Assay in all cases: Biovalidation: laminar flow assay, chemokine and VCAM-1 activated adhesion of T cells
Assay type in all cases: cell-based
Eotaxin = target: T1, Eotaxin (Homo sapiens, UniProt P51671)
T1 construct: purchased PeproTech, Inc. 300-21

SDF-1α = target: T2, SDF-1α (Homo sapiens, UniProt P48061)
T2 construct: purchased PeproTech, Inc. 300-28A
Protocol: (§1) 50 ml blood was added to 10 ml Dextran (Dextran T-500 6% w/v) in PBS (phosphate buffer saline), and 7 ml citrate buffer (25 g citrate, 8 g citric acid in 500 ml PBS). The solution was incubated for 30 min at 25° C. 10 ml Ficoll 1077 (Sigma) was added to the bottom of the tube. The tube was then centrifuged at 2,000 rpm for 30 min, at 18° C., (with the brake mode of the centrifuge off). The interphase was collected and washed twice with 8 ml PBS-5% FCS (fetal calf serum), followed by centrifugation at 1,400 rpm, for 5 min, at 18° C. The cells were re-suspended in PBS-5% FCS at a concentration less than 10^8/ml. 2 ml of the cell solution were applied and incubated for 45 min at 25° C. on a Perspex Nylon wool column, which was pre-soaked with PBS-5% FCS. Each column was washed with 8 ml PBS-5% FCS and the cells (T-cells and erythrocytes) were eluted by 50 ml of 5 mM EDTA in PBS. A red pellet was obtained by centrifugation at 1,400 rpm, at 4° C., for 5 min, with the brake on. In order to perform lysis of the erythrocytes, the red pellet was re-suspended in 5 ml lysis-buffer (155 mM NH4Cl, 10 mM KHCO3, 0.1 mM EDTA, X0.1PBS) for 4 min, followed by immediate addition of 50 ml of PBS-EDTA.
(§2) Following centrifugation at 1,400 rpm, at 4° C., for 5 min with brake on, the pellet was washed again with 50 ml PBS-EDTA and re-centrifuged under the same conditions. A white pellet was obtained and re-suspended in RPMI/10% FCS/L-glutamine/sodium pyruvate/antibiotics at a concentration of 3^X10^6 cells/ml. The cells were incubated for 2 h at 37° C., followed by collection of the non-adherent cells. The cells were ready for use in experiments after overnight incubation at 37° C. […]
Laminar flow assays were performed as follows. […] The number of adherent cells resisting detachment by the elevated shear forces was determined after each interval by analysis of videotaped cell images, and was expressed as the percent of originally settled cells. […]

MIG = target: T3, MIG (Homo sapiens, UniProt Q07325); conditions: T cell adhesion under flow, VCAM-1
T3 construct: purchased PeproTech, Inc. 300-26
T3 sequence (Q07325 23-125): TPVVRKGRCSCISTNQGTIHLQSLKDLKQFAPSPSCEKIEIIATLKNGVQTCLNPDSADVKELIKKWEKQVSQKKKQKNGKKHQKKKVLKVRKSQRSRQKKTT
Protocol: as §1, §2
Laminar flow assays were performed as follows. Polystyrene plates (B.D) were coated with soluble VCAM-1 at 10 μg/ml in the presence of 2 μg/ml HSA carrier. The plates were washed three times with PBS and blocked with HSA (20 μg/ml in PBS) for 2 hrs at room temperature. Alternatively, washed plates were coated with 10 μg/ml MIG chemokine in PBS for 30 min at room temperature, before being blocked with HSA. The plates were assembled as the lower wall of a parallel wall flow chamber and mounted on the stage of an inverted microscope. The peptide, as described previously, (10 μg/ml) was allowed to settle on the substrate coated chamber wall for 10 min, at 37° C. and then washed. T cells (5×10^6/ml, purity >98%) were suspended in binding buffer, perfused into the chamber and allowed to settle on the substrate coated chamber wall for 1 min, at 37° C. Flow was initiated and increased in 2 to 2.5 fold increments every 5 sec. generating controlled shear stresses on the wall. Cells were visualized in a 20× objective of an inverted phase-contrast Diaphot Microscope (Nikon, Japan) and photographed with a long integration LIS-700 CCD video camera (Applitech; Holon, Israel), connected to a video recorder (AG-6730 S-VHS, Panasonic, Japan). The number of adherent cells resisting detachment by the elevated shear forces was determined after each interval by analysis of videotaped cell images, and was expressed as the percent of originally settled cells. All adhesion experiments were performed at least three times on multiple test fields.

IL-8 = target: T4, IL-8 (Homo sapiens, UniProt P10145); parameters: key to Level of Antagonistic Effect / Level of Effect: + 20%; ++ 50%; +++ 100%; − No effect; conditions: VCAM-1
T4 construct: human IL-8, (72 amino acids) (Cat. No. 200-08M); purchased PeproTech, Inc. 200-08M
T4 sequence (P10145 28-99): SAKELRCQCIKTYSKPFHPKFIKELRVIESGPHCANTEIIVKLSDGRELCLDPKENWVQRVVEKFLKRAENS

[1] = T cell adhesion under flow, VCAM-1

T2 sequence (P48061 22-89 limits assumed): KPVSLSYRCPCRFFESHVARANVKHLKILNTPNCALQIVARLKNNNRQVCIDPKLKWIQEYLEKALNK

Kind of Effect (Eotaxin; Chemokine checked EOTAXIN): Antagonist
Level of Effect (Eotaxin; Chemokine checked Eotaxin, T cells, VCAM-1, peptide 10 μg/ml): +++ (+++ 100%)
Blocking of the activity of Eotaxin (Eotaxin; [1]): 100%
Kind of Effect (SDF-1α; Chemokine checked SDF-1α): Antagonist
Level of Effect (SDF-1α; Chemokine checked SDF-1α, T cells, VCAM-1, peptide 10 μg/ml): + (+ 20%)
Blocking of the activity of SDF-1α (SDF-1α; [1]): about 20%
Reduction of the activity of MIG (MIG): no effect
Level of Effect (IL-8; Chemokine checked IL-8, T cells, peptide 10 μg/ml): −
Abolishment of the activity of IL-8 (IL-8; T cell adhesion under flow): no effect
Sequence: QIPQMRILHPYG [BKT-P23]
